Laboratory results published in patent CN115746133A (BOAOXIN BIOTECHNOLOGY NANJING CO LTD, dated 2023).

Experiments:
[1] = target: T1, 人CD47 (表面过表达人CD47的293F细胞) (human, UniProt Q08722 19-323); experiment: flow cytometry on 293F cells overexpressing human CD47
T1 construct: whole, on cells; also called 表面过表达人CD47的稳定细胞系293F

[2] = target: T2, 重组人CD47-his蛋白 (ACRO biosystems, cat#CD7-H5227) (human, UniProt Q08722 19-139, biotin-labelled in the ELISA assays (site not stated)); experiment: SPR (Biacore T200), antibody captured by goat anti-mouse IgG on a CM5 chip, CD47-his as analyte
T2 construct: Bought protein; also called 人CD47蛋白; 人CD47-生物素; not shown: his tag
T2 sequence (Q08722 19-139 limits assumed): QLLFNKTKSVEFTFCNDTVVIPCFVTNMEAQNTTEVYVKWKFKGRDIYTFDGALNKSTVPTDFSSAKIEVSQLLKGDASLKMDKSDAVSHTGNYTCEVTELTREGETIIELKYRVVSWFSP

T1 sequence (Q08722 19-323): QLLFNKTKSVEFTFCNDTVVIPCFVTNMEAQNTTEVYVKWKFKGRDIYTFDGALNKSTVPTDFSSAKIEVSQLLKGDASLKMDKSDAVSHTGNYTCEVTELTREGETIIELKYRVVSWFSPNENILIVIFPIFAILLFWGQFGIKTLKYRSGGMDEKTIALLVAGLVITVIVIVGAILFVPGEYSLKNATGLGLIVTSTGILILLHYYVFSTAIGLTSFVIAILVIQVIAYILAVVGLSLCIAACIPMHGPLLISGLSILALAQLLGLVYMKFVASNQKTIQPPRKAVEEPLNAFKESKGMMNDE

binding result [1]: binds
binding result [2]: binds
B1: 小鼠抗人CD47单克隆抗体1H10 (antibody, V domains shown)
VH: EVQLQQSGAELVRSGASVTLSCTASGFKIKDYYMNWVKQRPEQGLEWIGWIGPENGDTENGPKFQDKATMTANTSSNTAFLQLSSLTPEDTAFYYCNAGGRGGFPYWGQGTQVTVST
VL: DILLTQTPLSLPVSLGDQASFSCRSSQDIVHINGKTYLEWYLQKPGQSPKLLIYRVSNRFSGVPDRFSGSGSGTDFTLKISRVEAEDLGVYYCFQGSHVPRTFGGGTKLEIK
notes: also called 本发明的抗体1H10; 本发明的单克隆抗体1H10
